The target in experiment [1] is T1, full-length human LAG-3 on cells (human, UniProt P18627 23-525).
T1 construct: Expressed on Flp-In-293, CHO or 293F transfectants; also called hPro1.FL; cell surface human LAG-3
T1 sequence: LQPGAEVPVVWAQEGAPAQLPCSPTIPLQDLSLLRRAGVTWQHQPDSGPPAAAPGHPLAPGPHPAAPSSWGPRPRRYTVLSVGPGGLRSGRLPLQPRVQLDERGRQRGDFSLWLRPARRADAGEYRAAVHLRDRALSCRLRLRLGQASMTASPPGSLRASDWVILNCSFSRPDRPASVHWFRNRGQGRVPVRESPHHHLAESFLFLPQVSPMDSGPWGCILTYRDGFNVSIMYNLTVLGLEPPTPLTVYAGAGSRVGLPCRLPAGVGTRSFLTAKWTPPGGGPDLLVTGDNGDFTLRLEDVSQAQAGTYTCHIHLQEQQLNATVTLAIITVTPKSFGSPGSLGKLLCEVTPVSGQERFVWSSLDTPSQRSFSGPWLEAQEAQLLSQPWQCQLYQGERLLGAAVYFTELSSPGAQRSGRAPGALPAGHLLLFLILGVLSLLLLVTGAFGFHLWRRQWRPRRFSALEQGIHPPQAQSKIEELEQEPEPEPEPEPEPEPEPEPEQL
Nature of the experiment: FACS competition on Flp-In-293 cells expressing human LAG-3: biotinylated BMK1 at 1 ug/mL, serially diluted antibody, Streptavidin-PE. How it is done: (§1) The binding epitope of LAG-3 antibodies was binned against benchmark antibodies BMK1, BMK7 and BMK5 by FACS assay. Flp-In-293 cells expressing human LAG-3 at the cell surface were incubated with biotinylated benchmark antibodies at concentration of 1 μg/mL for 1 hour, followed by the adding of serially diluted LAG-3 antibodies. Streptavidin-PE antibody (Jackson Immunoresearch Lab) was used to detect the binding of benchmark antibodies to cells. The MFI was evaluated by flow cytometry and analyzed by FlowJo.

The target of experiment [2] is T2, full-length mouse LAG-3 on cells (mouse, UniProt Q61790 24-521).
T2 construct: also called mPro1.FL; murine LAG-3
T2 sequence: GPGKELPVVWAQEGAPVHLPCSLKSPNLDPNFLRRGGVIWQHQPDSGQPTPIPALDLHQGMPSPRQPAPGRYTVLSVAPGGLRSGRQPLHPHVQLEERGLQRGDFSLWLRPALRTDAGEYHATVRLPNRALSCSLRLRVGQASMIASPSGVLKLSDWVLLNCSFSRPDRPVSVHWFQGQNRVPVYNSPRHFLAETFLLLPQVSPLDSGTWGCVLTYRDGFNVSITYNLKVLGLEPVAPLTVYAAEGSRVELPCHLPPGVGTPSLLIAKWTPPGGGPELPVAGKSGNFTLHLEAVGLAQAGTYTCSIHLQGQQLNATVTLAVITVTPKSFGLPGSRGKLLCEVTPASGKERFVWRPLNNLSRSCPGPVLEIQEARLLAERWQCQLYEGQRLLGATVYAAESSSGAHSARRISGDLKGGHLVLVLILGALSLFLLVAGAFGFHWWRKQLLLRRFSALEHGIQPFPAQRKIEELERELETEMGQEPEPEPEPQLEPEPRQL
Nature of the experiment: FACS, 1 ug/mL antibody, transfected 293F cells.

The next experiment addresses T3, Variant 1: xPro1.FL-x1 (human; mouse).
T3 construct: Chimeric full-length LAG-3 on transfected 293F cells
T3 chain: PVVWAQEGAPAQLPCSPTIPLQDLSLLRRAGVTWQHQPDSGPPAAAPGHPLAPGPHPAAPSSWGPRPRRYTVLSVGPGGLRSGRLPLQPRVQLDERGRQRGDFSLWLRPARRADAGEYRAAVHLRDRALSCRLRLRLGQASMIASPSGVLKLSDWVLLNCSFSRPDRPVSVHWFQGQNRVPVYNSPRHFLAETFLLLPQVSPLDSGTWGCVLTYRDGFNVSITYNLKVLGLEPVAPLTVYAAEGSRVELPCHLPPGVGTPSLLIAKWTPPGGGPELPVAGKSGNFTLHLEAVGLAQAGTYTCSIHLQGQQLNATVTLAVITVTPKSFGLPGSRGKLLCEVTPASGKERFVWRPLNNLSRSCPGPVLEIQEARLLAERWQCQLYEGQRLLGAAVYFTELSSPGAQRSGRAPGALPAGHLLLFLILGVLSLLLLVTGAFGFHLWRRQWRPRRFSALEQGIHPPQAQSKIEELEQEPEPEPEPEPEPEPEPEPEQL
Nature of the experiment: FACS, 1 ug/mL antibody, transfected 293F cells.

For experiment [3], the target named is T2, full-length mouse LAG-3 on cells. The experiment in a line: FACS on murine LAG-3-expressing Flp-In-CHO cells, MFI. How it is done:
Cross-reactivity to cynomolgus and murine LAG-3 was measured by FACS. Murine LAG-3-expressing Flp-In-CHO cells or cynomolgus LAG-3-expressing 293F cells were transferred into 96-well U-bottom plates at a density of 1×10⁵ cells/well. Testing antibodies were serially diluted in wash buffer (1×PBS/1%BSA) and incubated with cells at 4° C. for 1 h. After washing with 1×PBS/1%BSA, corresponding secondary antibody was applied and incubated with cells at 4 ° C. in the dark for 1 h. The cells were then washed and resuspended in 1×PBS/1%BSA and then analyzed by flow cytometry.

The target of experiment [4] is T1, full-length human LAG-3 on cells. The experiment in a line: FACS competition on Flp-In-293 cells expressing human LAG-3: biotinylated BMK5 at 1 ug/mL, serially diluted antibody, Streptavidin-PE. As to the method: as §1

Consider one molecule from patent US20200407442A1 (WUXI BIOLOGICS IRELAND, published 2020).

B1: 1.53.3-uAb-IgG4k (antibody, V domains shown)
VH: QVQLQQWGAGLLKPSETLSLTCGVYGGSFSGYYWSWIRQPPGMGLEWIGEINHRGNTNYNPSLKSRVTISEDTSKNQFSLRLSSVTAADTAVYFCTRGEDYSDYDYYGDFWGQGTLVTVSS
VL: EIVLTQSPATLSLSQGERATLSCRASQSISSYLAWYQQKPGQAPRLLIYAASNRATGIPARFSGSGSGTDFTLTISSLEPEDFAIYYCQQRSNWPLTFGGGTKVEIK
notes: Fully human antibody from OMT rats; IgG4 kappa by its name
In the case of B1, the “IC50 (read off the curve)” value in experiment [1] is approximately 5 nM; in experiment [4] it was approximately 1 nM. The MFI amounted to 43.9 in experiment [2] and 8580 with Variant 1: xPro1.FL-x1. The results for the “PE+ %” value (in experiment [2]; with Variant 1: xPro1.FL-x1) were 1.1% and 97%, respectively. In addition, the binding result in experiment [3] is reported as “no binding (tested: 6.7 nM)”.
